The results in this text go back to patent US20240207421A1, “NERVE TARGETING PEPTIDES AND METHODS OF USE” (ALUME BIOSCIENCES, INC., priority 2020, published 2024).

Sequence of Human Myelin Basic Protein (P02686 134-304): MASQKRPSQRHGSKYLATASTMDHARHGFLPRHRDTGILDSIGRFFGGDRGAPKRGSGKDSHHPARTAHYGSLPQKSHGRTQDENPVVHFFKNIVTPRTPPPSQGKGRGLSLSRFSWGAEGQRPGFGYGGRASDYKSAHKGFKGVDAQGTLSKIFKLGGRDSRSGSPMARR

The target of this assay is Human Myelin Basic Protein (Homo sapiens, UniProt P02686). Nature of the assay: Phage display library screening (Example 2, Python script analysis), binding to Human Myelin Basic Protein. Particulars: R3 Myelin Basic Protein; combined unique sequence count, Python/R script analysis. The arrangement: Enzo 200-606-M001 from human; purchased Enzo 200-606-M001; host or cells: human brain (tissue-derived). How it is done:
Phage display library screens were used to identify peptides that bind to target proteins (including specific laminin trimers) that are expressed in human nerves, as described in Table 3. These screens were also carried out to identify peptides that could bind selectively to nerves versus muscle. Such peptides could therefore be useful for systemic in-vivo labeling of nerves during fluorescence assisted surgery. Specifically, m 13 phage libraries expressing 7 or 12 random amino acid peptides, or a cyclic peptide CX7C, on the N-terminus of the minor coat protein pIII (New England Biolabs; NEB) were processed through multiple rounds of selection for binding to target proteins expressed in nerves, or to excised human nerves, nerve extracts, or muscle, as described further below.
For screening against the specified target proteins in Table 1, including LN211, LN411, LN421, and LN521, the phage library was processed by up to 4 binding and wash cycles. For selection, phage libraries were incubated for up to 24 hours at 4° C. in 96 well plates that had been coated with one of the target proteins. Plates were then washed with PBS and phage were eluted using 0.2M glycine pH 2.0. Phage supernatants where then neutralized with Tris pH 9.0 prior to plating on TGI bacteria and LB agar plates. Colonies were counted to determine titer followed by DNA preparation of pools of phage and NextGen sequencing. After rounds of selection, phage were pooled and amplified for iterative selection. Phage that were bound at each round were sequenced. NextGen sequencing of pools after 2, 3 and 4 rounds of selection was used to isolate candidate sequences that were analyzed further to identify those that specifically bound each unique target protein.
Python Script Analysis: For all NEB sequence datasets, a python script was used to translate, trim, and filter the peptide sequences. The script translated the nucleotide sequences, translating amber codons as glutamine in peptide sequences, and then trimmed the end sequences that come from the vector. Secondly, the script combined the unique counts of trimmed peptides with identical sequences. […] Another python script was used to group peptides from different assays according to protein target (Myelin Protein Zero, Myelin Proteolipid Protein, Myelin Basic Protein, and Nidogen-2) and also combine the unique sequence counts for each peptide. An R script was written to merge the peptide sequences from different data files and determine peptides specific for each protein target but absent from different protein binding datasets. Peptide sequences were ranked by unique sequence count.
“ELKSLRF (R3 Myelin Basic Protein-binding peptide)”: the Count was found to be 6.
“YTASPRW (R3 Myelin Basic Protein-binding peptide)”: the Count was determined as 6.
For “GSPYGWG (R3 Myelin Basic Protein-binding peptide)”, the Count was determined as 6.
For the substance “YSSRLND (R3 Myelin Basic Protein-binding peptide)”, the Count came to 6.
As to “YPYVPIY (R3 Myelin Basic Protein-binding peptide)”, the Count is on record as 6.
For the substance “SYRSMAP (R3 Myelin Basic Protein-binding peptide)”, the Count is recorded as 6.
Then “TPVRLNT (R3 Myelin Basic Protein-binding peptide)”, with 6; and “NMYPRVT (R3 Myelin Basic Protein-binding peptide)”, with 7; and “SEGLTLL (R3 Myelin Basic Protein-binding peptide)”, with 6.
In the case of “NLLQGVM (R3 Myelin Basic Protein-binding peptide)”, the Count was 7.
Then “VPTLRIP (R3 Myelin Basic Protein-binding peptide)”, with 8; and “SLRSVGA (R3 Myelin Basic Protein-binding peptide)”, with 7.
Then “KIITTKS (R3 Myelin Basic Protein-binding peptide)”, with 6.
As to “ALGTRPL (R3 Myelin Basic Protein-binding peptide)”, the Count came to 7.
The same measure for “CTMTNQYDC (R3 Myelin Basic Protein-binding peptide)”: 6; for “HSGPLLP (R3 Myelin Basic Protein-binding peptide)”: 6; for “KNSIAPR (R3 Myelin Basic Protein-binding peptide)”: 8.
“SPPRFIP (R3 Myelin Basic Protein-binding peptide)”: the Count was found to be 8.
For the substance “HPWSHPN (R3 Myelin Basic Protein-binding peptide)”, the Count is listed as 6.
The same measure for “KYRHGAE (R3 Myelin Basic Protein-binding peptide)”: 7; for “RTTDWWT (R3 Myelin Basic Protein-binding peptide)”: 6; for “SLDHLRL (R3 Myelin Basic Protein-binding peptide)”: 6.
Take “GQWWKML (R3 Myelin Basic Protein-binding peptide)”: the Count was 6.
With “AKFTMWV (R3 Myelin Basic Protein-binding peptide)”, the Count was determined as 6.
For the substance “VIRTAAM (R3 Myelin Basic Protein-binding peptide)”, the Count came to 6.
On to “TPGRATL (R3 Myelin Basic Protein-binding peptide)”, for which the Count came to 6.
“AVRQTTM (R3 Myelin Basic Protein-binding peptide)”: the Count is given as 7.
The same measure for “WTYHPTT (R3 Myelin Basic Protein-binding peptide)”: 6; for “MQRLGAD (R3 Myelin Basic Protein-binding peptide)”: 6; for “GVAEVGL (R3 Myelin Basic Protein-binding peptide)”: 6.
The same measure for “TLLTALT (R3 Myelin Basic Protein-binding peptide)”: 7; for “HTGLRSL (R3 Myelin Basic Protein-binding peptide)”: 7.
Then “HFTFFPI (R3 Myelin Basic Protein-binding peptide)”, with 6; and “WPDLRIL (R3 Myelin Basic Protein-binding peptide)”, with 7.
As to “YPTYLSY (R3 Myelin Basic Protein-binding peptide)”, the Count is 6.
On to “AIPPRKL (R3 Myelin Basic Protein-binding peptide)”, for which the Count was 6.
As to “THKHMMT (R3 Myelin Basic Protein-binding peptide)”, the Count turned out to be 6.
The same measure for “FLNQAPT (R3 Myelin Basic Protein-binding peptide)”: 7; for “GPRVTPH (R3 Myelin Basic Protein-binding peptide)”: 6.
Then “RVIPSTT (R3 Myelin Basic Protein-binding peptide)”, with 6; and “IILPSAQ (R3 Myelin Basic Protein-binding peptide)”, with 8.
Turning to “SSMRYNS (R3 Myelin Basic Protein-binding peptide)”, the Count was 6.
The same measure for “TIRVAHT (R3 Myelin Basic Protein-binding peptide)”: 6; for “MDLSLKP (R3 Myelin Basic Protein-binding peptide)”: 10.
In the case of “ETHYKIA (R3 Myelin Basic Protein-binding peptide)”, the Count is given as 6.
The same measure for “QTSIMSG (R3 Myelin Basic Protein-binding peptide)”: 6; for “FSARTNT (R3 Myelin Basic Protein-binding peptide)”: 9.
The same measure for “HPTGTPT (R3 Myelin Basic Protein-binding peptide)”: 7; for “SLWQTLR (R3 Myelin Basic Protein-binding peptide)”: 6.
On to “HQMRTML (R3 Myelin Basic Protein-binding peptide)”, for which the Count is given as 6.
Then “ALYNQMT (R3 Myelin Basic Protein-binding peptide)”, with 6.
“GEPALVT (R3 Myelin Basic Protein-binding peptide)”: the Count is 6.
Then “VRGTPNH (R3 Myelin Basic Protein-binding peptide)”, with 6; and “WSLPLLS (R3 Myelin Basic Protein-binding peptide)”, with 7; and “TGPSSAV (R3 Myelin Basic Protein-binding peptide)”, with 6.
As to “AISWKGF (R3 Myelin Basic Protein-binding peptide)”, the Count amounted to 6.
The same measure for “TGNLRLY (R3 Myelin Basic Protein-binding peptide)”: 9; for “NGVSSSL (R3 Myelin Basic Protein-binding peptide)”: 6.
With “LVPPVNH (R3 Myelin Basic Protein-binding peptide)”, the Count stood at 6.
The same measure for “AGSLLSL (R3 Myelin Basic Protein-binding peptide)”: 6.
As to “DVVKDVI (R3 Myelin Basic Protein-binding peptide)”, the Count amounted to 7.
The same measure for “TPQVMLK (R3 Myelin Basic Protein-binding peptide)”: 8; for “CEDSDKSVC (R3 Myelin Basic Protein-binding peptide)”: 7; for “GHSHYILGKPTA (R3 Myelin Basic Protein-binding peptide)”: 7.
“KMSLAPP (R3 Myelin Basic Protein-binding peptide)”: the Count amounted to 6.
Then “DSQEKSV (R3 Myelin Basic Protein-binding peptide)”, with 6.
For the substance “FVLPNKN (R3 Myelin Basic Protein-binding peptide)”, the Count was determined as 8.
Then “HFLRPSD (R3 Myelin Basic Protein-binding peptide)”, with 7.
As for “HFYGPGP (R3 Myelin Basic Protein-binding peptide)”, the Count amounted to 9.
With “SNAHTLP (R3 Myelin Basic Protein-binding peptide)”, the Count was determined as 6.
Then “WDLPQNR (R3 Myelin Basic Protein-binding peptide)”, with 6; and “IPYSQMP (R3 Myelin Basic Protein-binding peptide)”, with 6; and “SEPGTVR (R3 Myelin Basic Protein-binding peptide)”, with 7.
Consider “HPDTLPQ (R3 Myelin Basic Protein-binding peptide)”, for which the Count is 7.
For the substance “IPIPYRT (R3 Myelin Basic Protein-binding peptide)”, the Count turned out to be 6.
Consider “ANLSRSV (R3 Myelin Basic Protein-binding peptide)”, for which the Count turned out to be 9.
